178 variants from IntAct's records for PubMed 29039417 can be followed below.

First the molecules themselves.
B1: Protein PTHB1 (Homo sapiens), Q3SYG4 (parent)
chain: MSLFKARDWWSTILGDKEEFDQGCLCLANVDNSGNGQDKIIVGSFMGYLRIFSPHPAKTGDGAQAEDLLLEVDLRDPVLQVEVGKFVSGTEMLHLAVLHSRKLCVYSVSGTLGNVEHGNQCQMKLMYEHNLQRTACNMTYGSFGGVKGRDLICIQSMDGMLMVFEQESYAFGRFLPGFLLPGPLAYSSRTDSFLTVSSCQQVESYKYQVLAFATDADKRQETEQQKLGSGKRLVVDWTLNIGEQALDICIVSFNQSASSVFVLGERNFFCLKDNGQIRFMKKLDWSPSCFLPYCSVSEGTINTLIGNHNNMLHIYQDVTLKWATQLPHIPVAVRVGCLHDLKGVIVTLSDDGHLQCSYLGTDPSLFQAPNVQSRELNYDELDVEMKELQKIIKDVNKSQGVWPMTEREDDLNVSVVVSPNFDSVSQATDVEVGTDLVPSVTVKVTLQNRVILQKAKLSVYVQPPLELTCDQFTFEFMTPDLTRTVSFSVYLKRSYTPSELEGNAVVSYSRPTDRNPDGIPRVIQCKFRLPLKLICLPGQPSKTASHKITIDTNKSPVSLLSLFPGFASQSDDDQVNVMGFHFLGGARITVLASKTSQRYRIQSEQFEDLWLITNELILRLQEYFEKQGVKDFACSFSGSIPLQEYFELIDHHFELRINGEKLEELLSERAVQFRAIQRRLLARFKDKTPAPLQHLDTLLDGTYKQVIALADAVEENQGNLFQSFTRLKSATHLVILLIALWQKLSADQVAILEAAFLPLQEDTQELGWEETVDAAISHLLKTCLSKSSKEQALNLNSQLNIPKDTSQLKKHITLLCDRLSKGGRLCLSTDAAAPQTMVMPGGCTTIPESDLEERSVEQDSTELFTNHRHLTAETPRPEVSPLQGVSE
partner: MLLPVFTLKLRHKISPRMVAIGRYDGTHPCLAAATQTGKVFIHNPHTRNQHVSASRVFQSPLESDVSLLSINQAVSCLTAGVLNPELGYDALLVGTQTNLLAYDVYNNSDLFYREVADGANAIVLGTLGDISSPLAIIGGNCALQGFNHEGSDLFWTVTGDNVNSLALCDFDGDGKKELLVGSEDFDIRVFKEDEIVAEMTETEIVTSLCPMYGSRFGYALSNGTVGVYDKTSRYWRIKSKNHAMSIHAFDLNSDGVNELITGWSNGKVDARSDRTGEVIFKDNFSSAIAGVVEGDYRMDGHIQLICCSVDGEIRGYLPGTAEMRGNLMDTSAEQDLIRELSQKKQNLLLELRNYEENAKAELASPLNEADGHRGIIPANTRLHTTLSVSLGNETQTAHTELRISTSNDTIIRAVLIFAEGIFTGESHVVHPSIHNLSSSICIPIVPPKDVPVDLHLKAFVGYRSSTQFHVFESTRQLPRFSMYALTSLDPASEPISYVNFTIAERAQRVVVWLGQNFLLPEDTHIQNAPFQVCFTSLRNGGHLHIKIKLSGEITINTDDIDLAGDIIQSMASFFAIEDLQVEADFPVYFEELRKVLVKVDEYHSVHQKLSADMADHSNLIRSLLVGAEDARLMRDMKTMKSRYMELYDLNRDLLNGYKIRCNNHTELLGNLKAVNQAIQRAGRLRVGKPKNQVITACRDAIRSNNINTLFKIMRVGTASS

Variants of B1 are the subject of this experiment. Conditions: with bbs2_human BBS2, Q9BXC9.
Regarding L648K, the “effect of a mutation on the interaction” value is “with no effect”. The value for L648E was “with no effect”; that for L648A was “with no effect”; that for A670E was “with no effect”. The value for A670T was “disrupting interaction strength”; that for A670K was “with no effect”; that for E663A was “with no effect”.

In the case of E663K, the “effect of a mutation on the interaction” value is reported as “with no effect”. The value for R674P was “disrupting interaction strength”.

Consider R674A, for which the “effect of a mutation on the interaction” value is recorded as “with no effect”. Under R674E stands “with no effect”; under R674K, “with no effect”; under R679A, “with no effect”. Under R679G stands “disrupting interaction strength”; under R679K, “with no effect”.

With R679E, the “effect of a mutation on the interaction” value is “with no effect”. On to D696E, for which the “effect of a mutation on the interaction” value is listed as “with no effect”. Under D696A stands “with no effect”; under D696K, “with no effect”. As for G659E, the “effect of a mutation on the interaction” value is given as “with no effect”. The value for G659K was “with no effect”. In the case of G659A, the “effect of a mutation on the interaction” value is recorded as “with no effect”. The value for S667A was “with no effect”; that for S667E was “with no effect”.

For the variant S667K, the “effect of a mutation on the interaction” value is on record as “with no effect”. Under D650K stands “with no effect”; under D650E, “with no effect”. As to D650A, the “effect of a mutation on the interaction” value is given as “with no effect”. Consider L692K, for which the “effect of a mutation on the interaction” value is given as “with no effect”. Under L692A stands “with no effect”; under L692E, “with no effect”. As to L681E, the “effect of a mutation on the interaction” value is “with no effect”. The value for L681K was “with no effect”. Under L681A stands “with no effect”; under Q672A, “with no effect”. For the variant Q672E, the “effect of a mutation on the interaction” value is on record as “with no effect”. Under Q672K stands “with no effect”.

Take Y645A: the “effect of a mutation on the interaction” value was “with no effect”. The value for Y645K was “with no effect”; that for Y645E was “with no effect”; that for F684A was “with no effect”. The value for F684K was “with no effect”. The value for F684E was “with no effect”; that for D686E was “with no effect”; that for D686K was “with no effect”. On to D686A, for which the “effect of a mutation on the interaction” value is “with no effect”. As for F653K, the “effect of a mutation on the interaction” value is recorded as “with no effect”. The value for F653E was “with no effect”. F653A: the “effect of a mutation on the interaction” value is reported as “with no effect”.

As to K687E, the “effect of a mutation on the interaction” value is given as “with no effect”.

For K687A, the “effect of a mutation on the interaction” value is on record as “with no effect”. Under V671K stands “with no effect”; under V671E, “with no effect”; under V671A, “with no effect”. The value for E660K was “with no effect”.

Turning to E660A, the “effect of a mutation on the interaction” value is reported as “with no effect”. Under F646A stands “with no effect”. Turning to F646K, the “effect of a mutation on the interaction” value is “with no effect”. Under F646E stands “with no effect”; under L680E, “with no effect”; under L680K, “with no effect”. Turning to L680A, the “effect of a mutation on the interaction” value is recorded as “with no effect”. Under E654A stands “with no effect”; under E654K, “with no effect”.

With H694S, the “effect of a mutation on the interaction” value is “disrupting interaction strength”.

On to H694A, for which the “effect of a mutation on the interaction” value is given as “with no effect”. The value for H694Y was “disrupting interaction strength”; that for H694K was “with no effect”.

Regarding H694E, the “effect of a mutation on the interaction” value is listed as “with no effect”.

Turning to P691A, the “effect of a mutation on the interaction” value is listed as “with no effect”. The value for P691K was “with no effect”; that for P691L was “disrupting interaction strength”; that for P691E was “with no effect”.

On to P691S, for which the “effect of a mutation on the interaction” value is given as “disrupting interaction strength”.

For the variant H651E, the “effect of a mutation on the interaction” value was “with no effect”. Under H651K stands “with no effect”; under H651A, “with no effect”; under L695E, “with no effect”. The value for L695K was “with no effect”; that for L695M was “disrupting interaction strength”. Under L695A stands “with no effect”; under K685E, “with no effect”; under K685A, “with no effect”. With T688A, the “effect of a mutation on the interaction” value is given as “disrupting interaction strength”. On to T688K, for which the “effect of a mutation on the interaction” value is “with no effect”.

For the variant T688E, the “effect of a mutation on the interaction” value is listed as “disrupting interaction strength”.

For the variant K661E, the “effect of a mutation on the interaction” value was “with no effect”. The value for K661A was “with no effect”. Under L642A stands “with no effect”; under L642E, “with no effect”. Under L642K stands “with no effect”; under R656A, “with no effect”. For the variant R656K, the “effect of a mutation on the interaction” value is on record as “with no effect”.

Consider R656E, for which the “effect of a mutation on the interaction” value was “with no effect”. Take Q643A: the “effect of a mutation on the interaction” value is “with no effect”. The value for Q643E was “with no effect”; that for Q643K was “with no effect”. E647A: the “effect of a mutation on the interaction” value is listed as “with no effect”. The value for E647K was “with no effect”; that for I657K was “with no effect”.

Take I657E: the “effect of a mutation on the interaction” value is reported as “with no effect”. With I657A, the “effect of a mutation on the interaction” value was “with no effect”.

For the variant A690E, the “effect of a mutation on the interaction” value is given as “disrupting interaction strength”.

Regarding A690F, the “effect of a mutation on the interaction” value is “disrupting interaction strength”.

Regarding A690K, the “effect of a mutation on the interaction” value is recorded as “with no effect”. The value for A690V was “disrupting interaction strength”; that for Q677A was “with no effect”; that for Q677E was “with no effect”. For the variant Q677Y, the “effect of a mutation on the interaction” value is on record as “disrupting interaction strength”.

On to Q677K, for which the “effect of a mutation on the interaction” value is “with no effect”. Under L655K stands “with no effect”. Under L655A stands “with no effect”; under L655E, “with no effect”. Regarding R678E, the “effect of a mutation on the interaction” value was “with no effect”.

Turning to R678A, the “effect of a mutation on the interaction” value was “with no effect”.

On to R678K, for which the “effect of a mutation on the interaction” value was “with no effect”.

On to E668K, for which the “effect of a mutation on the interaction” value was “with no effect”. The value for E668A was “with no effect”; that for N658A was “with no effect”.

In the case of N658K, the “effect of a mutation on the interaction” value is given as “with no effect”.

As for N658E, the “effect of a mutation on the interaction” value is recorded as “with no effect”.

On to L662A, for which the “effect of a mutation on the interaction” value is recorded as “with no effect”. The value for L662E was “with no effect”; that for L662K was “with no effect”; that for L665R was “disrupting interaction strength”. Under L665A stands “with no effect”; under L665K, “with no effect”; under L665E, “with no effect”. The value for P641A was “with no effect”; that for P641K was “with no effect”.

P641E: the “effect of a mutation on the interaction” value is recorded as “with no effect”.

Consider I640A, for which the “effect of a mutation on the interaction” value is on record as “with no effect”. Regarding I640K, the “effect of a mutation on the interaction” value is reported as “with no effect”. The value for I640E was “with no effect”; that for A682K was “with no effect”.

On to A682E, for which the “effect of a mutation on the interaction” value is “with no effect”. The value for R669E was “with no effect”; that for R669K was “with no effect”. As for R669A, the “effect of a mutation on the interaction” value is on record as “with no effect”. As for I676A, the “effect of a mutation on the interaction” value is recorded as “with no effect”. Under I676K stands “with no effect”; under I676E, “with no effect”.

For the variant L666K, the “effect of a mutation on the interaction” value was “with no effect”. The value for L666A was “with no effect”; that for L666E was “with no effect”.

As for E644A, the “effect of a mutation on the interaction” value was “with no effect”. As to E644K, the “effect of a mutation on the interaction” value was “with no effect”.

Q693K: the “effect of a mutation on the interaction” value was “with no effect”. The value for Q693A was “with no effect”; that for Q693E was “with no effect”. Under E664A stands “with no effect”. Under E664K stands “with no effect”; under R683A, “with no effect”. For R683K, the “effect of a mutation on the interaction” value is listed as “with no effect”.

As for R683E, the “effect of a mutation on the interaction” value is “with no effect”. The value for T697C was “disrupting interaction strength”; that for T697K was “with no effect”; that for T697A was “with no effect”.

Consider T697E, for which the “effect of a mutation on the interaction” value is “with no effect”. For H652E, the “effect of a mutation on the interaction” value is recorded as “with no effect”. The value for H652A was “with no effect”. Under H652K stands “with no effect”; under L698E, “with no effect”.

Consider L698A, for which the “effect of a mutation on the interaction” value is reported as “with no effect”. Under L698K stands “with no effect”; under F673A, “with no effect”; under F673E, “with no effect”. Under F673K stands “disrupting interaction strength”; under A675E, “with no effect”.

On to A675H, for which the “effect of a mutation on the interaction” value is reported as “disrupting interaction strength”. The value for A675K was “with no effect”; that for P689S was “disrupting interaction strength”. The value for P689K was “with no effect”. Turning to P689A, the “effect of a mutation on the interaction” value is “with no effect”.

Turning to P689E, the “effect of a mutation on the interaction” value was “with no effect”.

For I649A, the “effect of a mutation on the interaction” value is listed as “with no effect”.

For I649E, the “effect of a mutation on the interaction” value is “with no effect”. Under I649K stands “with no effect”.
